Assays:
[1] = target: T1, Smc3(R1222C) (S. cerevisiae, UniProt P47037 1-1230, R1222C); test: cross-linking
T1 sequence (looked up): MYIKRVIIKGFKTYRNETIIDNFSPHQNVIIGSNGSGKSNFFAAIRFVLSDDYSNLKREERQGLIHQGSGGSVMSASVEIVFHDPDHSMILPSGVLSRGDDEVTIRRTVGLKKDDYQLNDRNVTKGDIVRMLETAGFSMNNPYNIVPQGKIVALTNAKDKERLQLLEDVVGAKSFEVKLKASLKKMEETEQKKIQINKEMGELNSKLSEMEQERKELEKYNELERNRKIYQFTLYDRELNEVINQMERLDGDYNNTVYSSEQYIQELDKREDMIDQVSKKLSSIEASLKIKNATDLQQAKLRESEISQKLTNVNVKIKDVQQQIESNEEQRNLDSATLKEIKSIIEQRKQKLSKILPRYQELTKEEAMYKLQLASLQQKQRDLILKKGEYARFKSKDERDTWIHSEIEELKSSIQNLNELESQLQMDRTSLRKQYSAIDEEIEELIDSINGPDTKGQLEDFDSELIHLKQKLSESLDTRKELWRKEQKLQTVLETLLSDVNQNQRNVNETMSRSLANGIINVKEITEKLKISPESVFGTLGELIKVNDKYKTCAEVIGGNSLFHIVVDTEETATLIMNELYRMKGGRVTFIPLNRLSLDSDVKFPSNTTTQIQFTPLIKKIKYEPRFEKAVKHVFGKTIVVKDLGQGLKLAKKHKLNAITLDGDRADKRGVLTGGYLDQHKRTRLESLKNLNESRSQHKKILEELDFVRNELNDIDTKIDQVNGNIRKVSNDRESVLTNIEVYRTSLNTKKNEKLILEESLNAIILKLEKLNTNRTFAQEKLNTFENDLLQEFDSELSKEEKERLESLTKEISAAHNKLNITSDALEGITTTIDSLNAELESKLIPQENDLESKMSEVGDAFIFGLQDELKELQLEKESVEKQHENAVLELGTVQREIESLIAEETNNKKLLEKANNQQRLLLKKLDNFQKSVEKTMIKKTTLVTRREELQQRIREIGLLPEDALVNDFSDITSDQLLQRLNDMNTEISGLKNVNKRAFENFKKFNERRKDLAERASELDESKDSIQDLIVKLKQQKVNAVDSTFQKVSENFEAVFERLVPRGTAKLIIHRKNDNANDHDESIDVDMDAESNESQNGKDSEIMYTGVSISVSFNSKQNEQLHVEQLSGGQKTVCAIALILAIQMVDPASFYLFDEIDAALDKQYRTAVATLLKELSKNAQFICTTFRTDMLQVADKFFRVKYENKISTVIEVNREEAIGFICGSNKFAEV

[2] = target: T2, acetylated Smc3(R1222C) (S. cerevisiae, UniProt P47037 1-1230, R1222C, acetylated, residues not given); test: cross-linking
T2 sequence (looked up): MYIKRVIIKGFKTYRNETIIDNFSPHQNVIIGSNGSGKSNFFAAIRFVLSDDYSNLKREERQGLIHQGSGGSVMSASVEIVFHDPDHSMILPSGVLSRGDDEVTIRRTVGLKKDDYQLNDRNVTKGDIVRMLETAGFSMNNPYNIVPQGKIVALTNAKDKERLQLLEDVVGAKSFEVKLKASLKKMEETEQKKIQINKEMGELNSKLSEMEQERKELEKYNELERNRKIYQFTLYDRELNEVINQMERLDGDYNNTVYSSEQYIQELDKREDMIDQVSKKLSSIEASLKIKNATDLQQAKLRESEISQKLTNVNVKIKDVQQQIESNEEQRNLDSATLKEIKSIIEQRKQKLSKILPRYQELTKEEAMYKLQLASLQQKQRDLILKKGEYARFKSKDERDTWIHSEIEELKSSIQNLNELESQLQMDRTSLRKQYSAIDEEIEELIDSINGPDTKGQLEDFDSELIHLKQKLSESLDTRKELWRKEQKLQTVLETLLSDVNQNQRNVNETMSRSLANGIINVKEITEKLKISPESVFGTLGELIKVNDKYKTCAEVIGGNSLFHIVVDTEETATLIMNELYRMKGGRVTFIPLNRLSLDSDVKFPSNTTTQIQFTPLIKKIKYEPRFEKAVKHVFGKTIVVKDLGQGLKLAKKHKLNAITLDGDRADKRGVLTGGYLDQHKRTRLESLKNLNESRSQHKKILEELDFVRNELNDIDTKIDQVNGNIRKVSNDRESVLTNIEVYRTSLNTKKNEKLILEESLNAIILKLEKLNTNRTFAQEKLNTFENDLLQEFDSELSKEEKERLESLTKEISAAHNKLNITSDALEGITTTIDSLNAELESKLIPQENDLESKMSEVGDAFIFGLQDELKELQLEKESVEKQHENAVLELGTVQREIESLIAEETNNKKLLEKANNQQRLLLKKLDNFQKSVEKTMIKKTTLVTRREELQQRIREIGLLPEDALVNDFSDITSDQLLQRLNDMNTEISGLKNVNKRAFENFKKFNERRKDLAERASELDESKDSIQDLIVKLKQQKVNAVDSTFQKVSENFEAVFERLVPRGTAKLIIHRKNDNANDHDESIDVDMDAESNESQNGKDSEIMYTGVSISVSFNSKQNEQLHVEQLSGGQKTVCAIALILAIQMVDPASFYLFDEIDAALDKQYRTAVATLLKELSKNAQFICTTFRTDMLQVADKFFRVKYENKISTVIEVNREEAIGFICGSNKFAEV

cross-linking efficiency [1]: 41%
cross-linking efficiency [2]: 3%
B1: Smc1(N1192C)-HA6 (natural protein, S. cerevisiae, UniProt P32908 1-1225, looked up)
chain: MGRLVGLELSNFKSYRGVTKVGFGESNFTSIIGPNGSGKSNMMDAISFVLGVRSNHLRSNILKDLIYRGVLNDENSDDYDNEGAASSNPQSAYVKAFYQKGNKLVELMRIISRNGDTSYKIDGKTVSYKDYSIFLENENILIKAKNFLVFQGDVEQIAAQSPVELSRMFEEVSGSIQYKKEYEELKEKIEKLSKSATESIKNRRRIHGELKTYKEGINKNEEYRKQLDKKNELQKFQALWQLYHLEQQKEELTDKLSALNSEISSLKGKINNEMKSLQRSKSSFVKESAVISKQKSKLDYIFKDKEKLVSDLRLIKVPQQAAGKRISHIEKRIESLQKDLQRQKTYVERFETQLKVVTRSKEAFEEEIKQSARNYDKFKLNENDLKTYNCLHEKYLTEGGSILEEKIAVLNNDKREIQEELERFNKRADISKRRITEELSITGEKLDTQLNDLRVSLNEKNALHTERLHELKKLQSDIESANNQEYDLNFKLRETLVKIDDLSANQRETMKERKLRENIAMLKRFFPGVKGLVHDLCHPKKEKYGLAVSTILGKNFDSVIVENLTVAQECIAFLKKQRAGTASFIPLDTIETELPTLSLPDSQDYILSINAIDYEPEYEKAMQYVCGDSIICNTLNIAKDLKWKKGIRGKLVTIEGALIHKAGLMTGGISGDANNRWDKEEYQSLMSLKDKLLIQIDELSNGQRSNSIRAREVENSVSLLNSDIANLRTQVTQQKRSLDENRLEIKYHNDLIEKEIQPKITELKKKLDDLENTKDNLVKEKEALQNNIFKEFTSKIGFTIKEYENHSGELMRQQSKELQQLQKQILTVENKLQFETDRLSTTQRRYEKAQKDLENAQVEMKSLEEQEYAIEMKIGSIESKLEEHKNHLDELQKKFVTKQSELNSSEDILEDMNSNLQVLKRERDGIKEDIEKFDLERVTALKNCKISNINIPISSETTIDDLPISSTDNEAITISNSIDINYKGLPKKYKENNTDSARKELEQKIHEVEEILNELQPNARALERYDEAEGRFEVINNETEQLKAEEKKILNQFLKIKKKRKELFEKTFDYVSDHLDAIYRELTKNPNSNVELAGGNASLTIEDEDEPFNAGIKYHATPPLKRFKDMEYLSGGEKTVAALALLFAINSYQPSPFFVLDEVDAALDITNVQRIAAYIRRHRNPDLQFIVISLKCTMFEKSDALVGVYRQQQENSSKIITLDLSNYAE

Reference: paper doi:10.1101/495762 (bioRxiv, 2018)
